In paper doi:10.1101/2021.04.23.441157:
Blank lines part the entries; values can stand above or below the substance they belong to.

Tests used:
Assay in all cases: TIRF microscopy of filaments on supported lipid bilayers
[1] = target: Cdc11a-capped septin hetero-octamer (recombinant Ashbya gossypii septin complex) (Ashbya gossypii | S. cerevisiae) (UniProt P32468)
[2] = target: Cdc11b-capped septin hetero-octamer (recombinant Ashbya gossypii septin complex) (Ashbya gossypii | S. cerevisiae) (UniProt P32468)
[3] = target: Cdc11b-Cdc11aCTE-capped septin octamer (Ashbya gossypii | S. cerevisiae) (UniProt P32468)
[4] = target: Cdc11a-Cdc11bCTE-capped septin octamer (Ashbya gossypii | S. cerevisiae) (UniProt P32468)

average filament length at steady state [1]: 0.72 µm
average filament length at steady state, in octamers [1]: 23 octamers
Substance: Cdc11a-capped septin hetero-octamer (recombinant Ashbya gossypii septin complex) (from UniProt P32468 1-407)

average filament length at steady state [2]: 0.52 µm
average filament length at steady state, in octamers [2]: 16 octamers
Substance: Cdc11b-capped septin hetero-octamer (recombinant Ashbya gossypii septin complex) (from UniProt P32468 1-407)

average filament length at steady state [3]: 0.55 µm
average filament length at steady state, in octamers [3]: 17 octamers
Substance: Cdc11b-Cdc11aCTE-capped septin octamer (from UniProt P32468 1-407) (complex)

average filament length at steady state [4]: 0.94 µm
average filament length at steady state, in octamers [4]: 29 octamers
Substance: Cdc11a-Cdc11bCTE-capped septin octamer (from UniProt P32468 1-407) (complex)
